The text below walks through data of US9266930.

Like-named read-outs stand apart in the source and are kept apart here.

The target of assay [1] is HLA-A*1101 (human).
The target of assay [2] is HLA-A*0301 (human).
Assay [3] addresses HLA-A*1101 (human). The source holds these as a separate data set.

Consider “[…] (LSA position 40, 10-mer) (peptide; other documents disagree on this pair)”, for which the binding affinity ratio (IC50 of standard peptide / IC50 of test peptide) in assay [1] was determined as 0.0002. As to “[…] (LSA position 41, 9-mer) (peptide; other documents disagree on this pair)”, the binding affinity ratio (IC50 of standard peptide / IC50 of test peptide) in assay [1] came out at 0.003. As to “[…] (LSA position 49, 9-mer) (peptide; other documents disagree on this pair)”, in assay [1], the binding affinity ratio (IC50 of standard peptide / IC50 of test peptide) worked out at 0.037. Regarding “[…] (LSA position 49, 10-mer) (peptide; other documents disagree on this pair)”, the binding affinity ratio (IC50 of standard peptide / IC50 of test peptide) in assay [1] turned out to be 0.0018.

“[…] (LSA position 520, 10-mer) (peptide; other documents disagree on this pair)”: the binding affinity ratio (IC50 of standard peptide / IC50 of test peptide) in assay [1] was 0.0002. Turning to “[…] (LSA position 1183, 10-mer) (peptide; other documents disagree on this pair)”, the binding affinity ratio (IC50 of standard peptide / IC50 of test peptide) in assay [1] is 0.0002. As to “[…] (LSA position 1387, 10-mer) (peptide; other documents disagree on this pair)”, the binding affinity ratio (IC50 of standard peptide / IC50 of test peptide) in assay [1] worked out at 0.0002.

In the case of “[…] (LSA position 1574, 10-mer) (peptide; other documents disagree on this pair)”, the binding affinity ratio (IC50 of standard peptide / IC50 of test peptide) in assay [1] came to 0.0002. The same measure, in the same setting: the result for “[…] (LSA position 1591, 10-mer) (peptide; other documents disagree on this pair)” reads 0.0002; that for “[…] (LSA position 1703, 9-mer) (peptide; other documents disagree on this pair)”, 0.0027.

In the case of “[…] (LSA position 1703, 10-mer) (peptide; other documents disagree on this pair)”, the binding affinity ratio (IC50 of standard peptide / IC50 of test peptide) in assay [1] is 0.0002. In the case of “[…] (LSA position 1726, 10-mer) (peptide; other documents disagree on this pair)”, the binding affinity ratio (IC50 of standard peptide / IC50 of test peptide) in assay [1] was found to be 0.0002. On the same count and under the same terms, as for “[…] (LSA position 1750, 10-mer) (peptide; other documents disagree on this pair)”, the figure is 0.0002. On the same count and under the same terms, as for “[…] (LSA position 1855, 10-mer) (peptide; other documents disagree on this pair)”, the figure is 0.0045. Same read-out and setting: the result for “[…] (P. falciparum LSA, position 1676, 9-mer) (peptide; other documents disagree on this pair)” reads 0.0013. Turning to “[…] (Pf LSA 61, 10-mer A03 supermotif peptide) (peptide; other documents disagree on this pair)”, in assay [2], the binding affinity ratio (IC50 of standard peptide / IC50 of test peptide) was found to be 0.0004. Turning to “[…] (Pf LSA 1825, 10-mer A03 supermotif peptide) (peptide; other documents disagree on this pair)”, the binding affinity ratio (IC50 of standard peptide / IC50 of test peptide) in assay [3] came to 0.0009. As for “[…] (Pf LSA 1830, 10-mer A03 supermotif peptide) (peptide; other documents disagree on this pair)”, in assay [2], the binding affinity ratio (IC50 of standard peptide / IC50 of test peptide) amounted to 0.0004. As for “[…] (Pf LSA 1854, 9-mer A03 supermotif peptide) (peptide; other documents disagree on this pair)”, in assay [3], the binding affinity ratio (IC50 of standard peptide / IC50 of test peptide) stood at 0.034. On to “[…] (Pf LSA 1854, 10-mer A03 supermotif peptide) (peptide; other documents disagree on this pair)”, for which the binding affinity ratio (IC50 of standard peptide / IC50 of test peptide) in assay [3] was 0.049. As to “[…] (Pf LSA position 1751, 9-mer) (peptide; other documents disagree on this pair)”, the binding affinity ratio (IC50 of standard peptide / IC50 of test peptide) in assay [1] was determined as 0.0018.
